Test results as given in PMC2844434.

Biological target: Human pro-insulin fused to the Gal4 DNA binding domain (human)
Sequence (P01308 25-110): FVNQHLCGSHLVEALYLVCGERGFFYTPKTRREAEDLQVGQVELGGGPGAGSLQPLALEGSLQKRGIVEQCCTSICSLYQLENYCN

Row | Substance | glucose level of adult S. japonicum worms cultured 24 h with 20% anti-LD1 + anti-LD2 mouse antisera (medium with foetal bovine serum as source of insulin; endogenous receptors), against normal serum
1 | Ligand domain of Schistosoma japonicum insulin receptor 1 (SjIR-1), D59 to E411 (domain or fragment) | 65 % reduction
2 | Ligand domain of Schistosoma japonicum insulin receptor 2 (SjIR-2), Q7 to K399 (domain or fragment) | 65 % reduction
